The values below come from the supplement of paper PMC10899765.

Conditions in all cases: 20 nM; 72 h
Data set [1] concerns MCF10A. The data set can be described thus: percent viability (nuclei count relative to siNT); higher = more viable cells. On the procedure:
(§1)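 After 72 h, cells were fixed and stained with Hoechst and anti-fibrillarin, and nucleoli per nucleus were counted with CellProfiler. Values are plate-adjusted percent effect for the one-nucleolus and 5+ nucleoli phenotypes, normalised to siNT (0%) and to the positive controls siNOL11 or siKIF11 (100%), as the mean of biological triplicates. Percent viability is the nuclei count relative to siNT.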

In data set [2] the test system is MCF10A. The data set can be described thus: one-nucleolus phenotype percent effect (relative to siNT 0% and siNOL11 100%); higher = more cells with one nucleolus (ribosome biogenesis inhibition). As for the experimental part:
as §1

In data set [3] the test system is MCF10A. The data set can be described thus: 5+ nucleoli phenotype percent effect (relative to siNT 0% and siKIF11 100%); higher = more cells with five or more nucleoli. On the procedure:
as §1

In the case of “CAAAAACUGCAGUUACUUUUGC [hsa-miR-548ah-3p]”, the percent viability in data set [1] was found to be 144%. Further, the “one-nucleolus phenotype percent effect” value in data set [2] was -24.8%. Further, the “5+ nucleoli phenotype percent effect” value in data set [3] came to 63.6%.
The corresponding values for ACUGGAUUUGGAGCCAGAA [hsa-miR-378j] are 42.3%, -17.6% and -1.17%.
Turning to AUUCCUAGAAAUUGUUCAUA [hsa-miR-384], the percent viability in data set [1] came out at 107%. For the same sequence, the “one-nucleolus phenotype percent effect” value in data set [2] was -8.73%. Moreover, the “5+ nucleoli phenotype percent effect” value in data set [3] is 23.8%.
Regarding GAGGUUUGGGGAGGAUUUGCU [hsa-miR-4748], the percent viability in data set [1] turned out to be 24.1%. Moreover, the “one-nucleolus phenotype percent effect” value in data set [2] was 39.1%. Also, in data set [3], the “5+ nucleoli phenotype percent effect” value is -23.1%.
UUAGUGAAGGCUAUUUUAAUU [hsa-miR-3606-5p]: the percent viability in data set [1] was determined as 109%. Further, in data set [2], the “one-nucleolus phenotype percent effect” value was found to be 6.89%. Moreover, the “5+ nucleoli phenotype percent effect” value in data set [3] is -9.93%.
Turning to CUUCCGCCCCGCCGGGCGUCG [hsa-miR-718], the percent viability in data set [1] is 69%. Also, in data set [2], the “one-nucleolus phenotype percent effect” value is -13.8%. Besides, in data set [3], the “5+ nucleoli phenotype percent effect” value worked out at 30.6%.
The corresponding values for “GACACUAGGCAUGUGAGUGAUU [hsa-miR-4704-5p]” are 65%, -20.2% and 0.429%.
The corresponding values for GUGGGGCCAGGCGGUGG [hsa-miR-1227-5p] are 78.5%, -31% and 55.1%.
The matching figures for “UGGGCAGGGGCUUAUUGUAGGAG [hsa-miR-6721-5p]”: 21.3%, 19.5% and 22%.
Take GCAGCCCAGCUGAGGCCUCUG [hsa-miR-4690-3p]: the percent viability in data set [1] was 119%. In data set [2], the “one-nucleolus phenotype percent effect” value was -17.1%. Also, the “5+ nucleoli phenotype percent effect” value in data set [3] was found to be 21.1%.
The corresponding values for “GUCCAGUUUUCCCAGGAAUCCCU [hsa-miR-145-5p]” are 70.4%, -4.84% and -1.55%.
The corresponding values for “AUUCUUCCUGCCCUGGCUCCAU [hsa-miR-6875-3p]” are 29.5%, -4.69% and -0.842%.
The corresponding values for “GAGGUUUUCUGGGUUUCUGUUUC [hsa-miR-329-5p]” are 56%, -9.91% and 17.3%.
For the sequence “UCUCACACAGAAAUCGCACCCGU [hsa-miR-342-3p]”, the percent viability in data set [1] amounted to 78.4%. The “one-nucleolus phenotype percent effect” value in data set [2] is -2.78%. For the same sequence, in data set [3], the “5+ nucleoli phenotype percent effect” value was -4.22%.
“ACUUAAACGUGGAUGUACUUGCU [hsa-miR-302a-5p]”: the percent viability in data set [1] came to 128%. The “one-nucleolus phenotype percent effect” value in data set [2] was -19%. Further, the “5+ nucleoli phenotype percent effect” value in data set [3] is 65.8%.
The matching figures for CAUCCGUCCGUCUGUCCAC [hsa-miR-4800-3p]: 67.4%, -2.39% and -3.64%.
As to CAACUAGACUGUGAGCUUCUAG [hsa-miR-708-3p], in data set [1], the percent viability is 199%. In addition, in data set [2], the “one-nucleolus phenotype percent effect” value was -31%. Besides, the “5+ nucleoli phenotype percent effect” value in data set [3] was 46.1%.
The corresponding values for UAAGGGGUGUAUGGCAGAUGCA [hsa-miR-3936] are 19.2%, 36.7% and -17.6%.
The matching figures for UGGUUUACCGUCCCACAUACAU [hsa-miR-299-5p]: 27.9%, 24.1% and -19.4%.
As for UGGAUGACAGUGGAGGCCU [hsa-miR-6744-5p], the percent viability in data set [1] worked out at 20.5%. For the same sequence, the “one-nucleolus phenotype percent effect” value in data set [2] stood at 37.8%. Also, the “5+ nucleoli phenotype percent effect” value in data set [3] is -19.1%.
As to “CCUCUAAAGGGAAGCGCUUUCU [hsa-miR-520f-5p]”, in data set [1], the percent viability came to 119%. For the same sequence, the “one-nucleolus phenotype percent effect” value in data set [2] is -26.3%. In data set [3], the “5+ nucleoli phenotype percent effect” value was determined as 57.3%.
As to CAAGUCUUAUUUGAGCACCUGUU [hsa-miR-1264], the percent viability in data set [1] was found to be 70%. The “one-nucleolus phenotype percent effect” value in data set [2] is -11.7%. In addition, in data set [3], the “5+ nucleoli phenotype percent effect” value stood at 21.1%.
The corresponding values for “CUUCCCCCCAGUAAUCUUCAUC [hsa-miR-3679-3p]” are 88.6%, 4.01% and -16.6%.
The corresponding values for GCCUAUCACAUAUCUGCCUGU [hsa-miR-3927-5p] are 73.9%, -27.5% and 67.2%.
The matching figures for “UCUUGGAGUAGGUCAUUGGGUGG [hsa-miR-432-5p]”: 34.1%, 28.2% and -33.5%.
Turning to “UGGGGACGUAGCUGGCCAGACAG [hsa-miR-3191-3p]”, in data set [1], the percent viability came to 26.7%. The “one-nucleolus phenotype percent effect” value in data set [2] was 32.8%. The “5+ nucleoli phenotype percent effect” value in data set [3] came out at 4.11%.
The matching figures for ACCGUCUCUUCUGUUCCCCAG [hsa-miR-6827-3p]: 64.6%, 16.9% and -12.7%.
With “UGGGAGGGGAGAGGCAGCAAGCA [hsa-miR-4728-5p]”, the percent viability in data set [1] came to 7%. Besides, the “one-nucleolus phenotype percent effect” value in data set [2] amounted to 46%. The “5+ nucleoli phenotype percent effect” value in data set [3] is -29.9%.
The matching figures for “AGGGGGAUGGCAGAGCAAAAUU [hsa-miR-5010-5p]”: 44.2%, 13.7% and -7.77%.
The matching figures for CCUGCGUGUUUUCUGUCCAA [hsa-miR-4520b-5p]: 51%, 1.66% and -6.92%.
As for ACGGCCCAGGCGGCAUUGGUG [hsa-miR-6075], the percent viability in data set [1] was 87.5%. The “one-nucleolus phenotype percent effect” value in data set [2] was -5.35%. In addition, the “5+ nucleoli phenotype percent effect” value in data set [3] stood at 5.39%.
The matching figures for AAUAAUAUCACAGUAGGUGUAC [hsa-miR-5692c]: 133%, -21.3% and 46%.
The corresponding values for CUGGCCCUCUCUGCCCUUCCGU [hsa-miR-328] are 64%, -8.63% and 47.4%.
The matching figures for UUUGUGACCUGGUCCACUAACC [hsa-miR-758-3p]: 52.5%, 35.1% and -42%.
Take AUCCUUGCUAUCUGGGUGCUA [hsa-miR-502-5p]: the percent viability in data set [1] is 40.4%. Also, the “one-nucleolus phenotype percent effect” value in data set [2] was determined as 8.98%. The “5+ nucleoli phenotype percent effect” value in data set [3] was -11.6%.
On to UCGUGGCCUGGUCUCCAUUAU [hsa-miR-1204], for which, in data set [1], the percent viability was 48.3%. In addition, the “one-nucleolus phenotype percent effect” value in data set [2] was -7.25%. The “5+ nucleoli phenotype percent effect” value in data set [3] was determined as 2.14%.
The corresponding values for “UGCCGCCCUCUCGCUGCUCUAG [hsa-miR-4632-3p]” are 64.2%, 7.5% and -6.54%.
The matching figures for “AUACCUCAUCUAGAAUGCUGUA [hsa-miR-4777-3p]”: 51.3%, 0.874% and -19.6%.
On to “UUGCUAAGUAGGCUGAGAUUGA [hsa-miR-4639-5p]”, for which the percent viability in data set [1] was 22.7%. Moreover, the “one-nucleolus phenotype percent effect” value in data set [2] worked out at 11.8%. Further, the “5+ nucleoli phenotype percent effect” value in data set [3] is -11.6%.
The corresponding values for ACCUGAGGUUGUGCAUUUCUAA [hsa-miR-544b] are 45.3%, 20.9% and -17.6%.
In the case of “AACAUUCAACGCUGUCGGUGAGU [hsa-miR-181a-5p]”, in data set [1], the percent viability stood at 76.4%. Moreover, the “one-nucleolus phenotype percent effect” value in data set [2] was 2.31%. For the same sequence, the “5+ nucleoli phenotype percent effect” value in data set [3] came out at 0.638%.
With GCAGGUGCUCACUUGUCCUCCU [hsa-miR-764], in data set [1], the percent viability was 23.9%. In data set [2], the “one-nucleolus phenotype percent effect” value came out at 49.3%. Further, in data set [3], the “5+ nucleoli phenotype percent effect” value was -23.5%.
The corresponding values for CUACAGGCUGGAAUGGGCUCA [hsa-miR-7151-3p] are 20.6%, 13.6% and 2.37%.
The corresponding values for AAGGUUUGGAUAGAUGCAAUA [hsa-miR-4464] are 29.7%, 6.58% and -24.5%.
For the sequence UCAUUAUAUGUAUGAUCUGGAC [hsa-miR-4528], the percent viability in data set [1] worked out at 57.6%. Moreover, the “one-nucleolus phenotype percent effect” value in data set [2] was -16.8%. Moreover, the “5+ nucleoli phenotype percent effect” value in data set [3] is -2.39%.
The matching figures for UCUCUGAGUACCAUAUGCCUUGU [hsa-miR-3921]: 59.6%, -20.1% and -6.05%.
The matching figures for “AUGUGCCUGAGGGAGUAAGACA [hsa-miR-550b-2-5p]”: 49.7%, 9.16% and -13.6%.
For GGGGAAAGCGAGUAGGGACAUUU [hsa-miR-3153], in data set [1], the percent viability turned out to be 55.6%. In addition, the “one-nucleolus phenotype percent effect” value in data set [2] is -1%. Further, the “5+ nucleoli phenotype percent effect” value in data set [3] was determined as 13.5%.
